Results: the nanobody polyreactivity screen of Harvey et al. (2022)

Assay: yeast display, Sf9 membrane polyspecificity reagent, FACS + sequencing; frameworks hold sequencing errors
Method in brief: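 A synthetic nanobody library was expressed on Saccharomyces cerevisiae BJ5465 by galactose induction for 36–48 hours. The library was stained for 1 hour at 4 °C with 10% biotinylated, detergent-solubilized Sf9 membrane reagent and enriched with streptavidin microbeads before FACS. Low and high (top ~1%) gates were set on anti-HA fluorescence for expression and streptavidin fluorescence for reagent binding, and each polyreactivity label reflects the gate of origin.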

Sequence	polyreactivity (PSR sort gate)
QVHLVESGGGLVQAGGSLRLSCAASGNTFYWYVMGWYRQAPGKERDLVARITSSGGSTNYADSVKGRFTISRDNAKNTVYLQMISLKPEDTAVYYCAADDIYLYGGGTDYYYWGQGTQVTVSS	low polyreactivity
QVQLVESGGGLVQAGASLRLSCAASGGIFAYYAMGWYRQAPGKERELVAAINRSGGSTRYADSVKGRFTNSRDNAKNTVFLQMNSLKPEETAVYYCATKRSTGYYWGQGTQVTVSS	high polyreactivity
QVHLQESGSGLVQAGGSLRLSCAASGAIFPAYLMGWYRQAPGKERELVAGSSYGSITYCADSVKGRFNISRDNAKNTVYLQMNSLKPEDTAVYYCAVLRPGGDEYYYWGQGTKVTVSS	low polyreactivity
QVQLVESGGGLVQAGGSLRLSCAASGFTLEDYTMGWYRQAPGKERELVARITSGGSTNYADSVKGRFTISRDNAKNTVYLQMNSLKPEDTAVYYCNARYAWINMDYWGQGTQVTVSS	low polyreactivity
QVQLVESGGGLVQAGGSLRLSCAASGSLFKRNAMGWYRQAPGKERELVAAITSSGGRTYYADSVKGRFTISRDNAKNTVYLLMNSLKPEDTAVYYCNKVRAGRDERRAGDYWGQGTQVTVSS	high polyreactivity
QVQLVESGGGFVQAGRSLRLSCAASGSTFYIYAMGWSRQAPGKEREMVADISRGDSTNYADSVKGRFTISRDNAKNPVYLQLNSLKPEDTAVYYCNAAFRGERDWFSGRRYKFDYWGQGTQVTVSS	low polyreactivity
QVQLVESGGVLVQAGGSLRLSCAASGRTFYLYAMGWYRHAPGKERELVAAISWSDDTTYYADSVKGRFTISRDNAKNTVYLQRNSLKPEDTAVYYCAAEQEQVALYDYWGQGTQVTVSS	high polyreactivity
QVQLVESGGGLVQAGGSLRLSCAASGRTFYRYTMGWYRQAPAKERELVAAISWSGGSTYYADSVKGRFTISRDNAKNTVYLQMNSLKPEDTAVNYCAKATYWLYVQWYTYGYWGQGTQVTVSS	high polyreactivity
QVHLVESGGGLVQAGGSLRLSCAASGIIFPSYVMGWYRQAPGKEWELVARISARGGRTYYADSVKGRFTISRDNAKNTVYLQMNSLKPEDTAVYYCAARWGITTWYDYWGQGTQVTVSS	high polyreactivity
QVQLVESGGGLFQAGGSLRLSCAASGRIFHWYAMGWYRQAPGKERELHAAITDGDSTYYADSVKGRFTISRDNAKNTVYLQMNSLKPEDTAVYYCAADVVYSPYVFGGTRYYKYDYWGQVTQVTVSS	low polyreactivity
QVQLVESGGGLVQAGGSLRLSCAASGSIFRVYTMGWYRQAPGKERELVAAISRSGGRTYYADSVKGRFTISRDNAKNTVYLQMNSLKPEDTAVYYCNAQYGGQYGYGYWGQGTQVTVSS	high polyreactivity
QVQLVESGGGLVQAGGSLRLSCAASGSIHSLYTMGWYRQAPGKERELVARISRSGGSTYYADSVKGRFTISRDYAKNTVYLQMNSLKPEDTAVYYCADERKNKYDYWGQGTQVTVSS	high polyreactivity
QVQLVESGGGVVQAGRSLRLSCAASGSTFQPYAMGSYRQAPGKEREFVATISGSAGSTYYADSVKGSFKISRDNAKNTVYLQMTSLKPEDTAVYYCNADSGWFGYDYWGQGTQVTVSS	low polyreactivity
QVQLVESGGGLVQAGGSLRISCAASESIFPVYAMGWYRQAPGKERELVATITDGGGDTYYADSLKGRFTISRDNAKNTVYLQMNSLKPEDTAVYYCAARSMPEWSAYWYDYWGQGTQVTVSS	low polyreactivity
QVQLVESGGGLVQAGGSLRLSCAASGSTSYRYAMGWYRQAPGKERELVAGITRSGGSTYYADSVKGRFTISRDNAKNTVYLQMNSLKPEDTAVYYCAAYYSRQYVGYGYWGQGTQVTVSS	high polyreactivity
QVQLVESGGGLVQAGGSLRLSCAASGSTFEKNAMGWYRQAPGKERELVAAISNGVSTYYADSVKGRFTISRDNAKNTVYLQMNSLKPEDTAVYYCAADLFFGAETVYYDKFDYWGQGTQVTVSS	low polyreactivity
QVQLVESGGGLVQAGGSLRLSCAASGSIFYYNTMGRYRQAPGKERELVAAIRFDDGSTYYADSVKGRFTISRDNAKNTVYLQMNSLKPEDTAVYYCAADWIVVSEFGLDYHMDYWGQGTQVTVSS	low polyreactivity
QVQLVESGGGLVQAGGSLRLSCAASGRTFVYNAMGWYRQAPGKERELVATIRSSGGSTYYADSVKGRFTISRDNAKNTVYLQMNSLKPEDTAVYYCAARWRPYGKFYYWGQGTQVTVSS	high polyreactivity
QVQLVESGGGLVQAGGRLRLTCAASGSIFPTYDLGWYRQAPGKERELVAAIRGDGSTNYADSVKGRFTISRDNAKNTVYVQMNSLKPEDTAVSYCAAVSSEYVFRYGGYWGQGTQVTVSS	low polyreactivity
QVQLQESGGGLVQAGGSLLSCAASGTISYYREMGWYRQAPGKERELVAGIGVGTITYYADSVKGRITISRDNAKNTVYLQMNSLKPEDTAVYYCEAHIDGNDSHAYWGQGTQVTVSS	low polyreactivity
QVQLVESGGGLVQAGGSLRLSCAASGRIFGWYAMGWYRQAPGKERELVAAINWDGTSTDYADSVKGRFTISRDNAKNTVYLQMNSLKPEDTAVYYCAAEGHTAFLVYRVSPLQYDYWGQGTQVTVSS	low polyreactivity
QVQLVESGGGLLQAGGSLRLSCAASGSIFTAYAMGWYRQAPGKESELVAAIDDSGDSTYYADSVKGRFTISRDNAKHTVYLQMNSLKTEDTAVYYCKAEYRVNKEYDDWGQGTQVTVSS	low polyreactivity

Sequence	polyreactivity (PSR sort gate)
QVQLVESGGGLVQAGGSLRLSCAASGYTIYSYAMGWYRQAPGKERELVAAITESGARTYYADSVKGRFTISRDNAKNTVYLLMNSLKPEDSAVYYCAADYAWPLRVTGDYWGQGTQVTVSS	low polyreactivity
QVQLVESGGGLLQAGGSLRLSCAASGRILGPNAMGWYRQAPGTERELVAAINSGGSTNYADSVKGRFTISRDNAKNTVYLQMNSLKPEDTAVYYCATDKARVAGYGVEYDYWGQGTQVTVSS	low polyreactivity
QVQLVESGGGLVQAGCSLRLSCAASGFTFYQNVMGWYRQAPGKERELVASINRRGGSTYYADSVKGRFTISRDNAMNTVYLQKNSLKPEDTAVYYCAARTYRFYTRQLDYWGQGTQVTVSS	high polyreactivity
QVQLVESGGGLVQAGGSLRLSCAASGFIFNYYAMGWYRQAPGKERELVAAISPSGDNTYYADSVKGRFTISRDNAKNTVYLQMNSLKPEDTAVYYCNKVQGSWRVPYYYWGQGTQVTVSS	high polyreactivity
QVHLVESGGGLVQAGGSLRLSCAASGLIFARNAMGWYSQAPGKEREMVAAISRSGSTNYADSVKGRFTISRDNAKNTVYLQMNSLKPEDTAVYYCAADHARYLGFPRVDYWGQGTQVTVSS	low polyreactivity
QVQLVESGGGLVQAGGSLRLSCAASGSTFTNYAMGWYRQAPGKERELVAAINNDRTNYADSVKGRFTISRDNAKNTVYLQMNSLKPEDTAVYYCAAQWRVYGYKISRRNYWGQGTQVTVSS	high polyreactivity
QVQLVESGGGLVQAGGSLRLSCAASGFIFDYYAMGWYRQAPGKERELVATISSSGGSTYYADSVKGRFTISRDNAKNTVYLQMNSLKPEDTAVYYCATGYTWVADSWEYYYWGQGTQVTVSS	low polyreactivity
QVQLVESGGGLVQAGGSLRLSCAAYGRIIRWYARGWYRPSPGKERALVAAISWSGGSTYYADSVKGRFTISRDNAKNTVYLQLNSLKPEDTAVYYCNTVYAEYDYSTVDYWGQGTQVTVSS	high polyreactivity
QVQLVESGGGLVQAGGSLRLSCAASGSTFYRYAMGWYRQAPGKERELVAAISSDGTTYYADSVKGRFTISRDNAKNTVYLQMNCLNPVDTAVYYCAKERSRYYPYDYWGQGTQVTVSS	high polyreactivity
QVQLVESGGGLVQAGGSLRLRCAASGSTFGGYAMGWYRQAPGKERELVAAIANGDRTNYADSVKGRFIISRDNAKNTVYLQMNSLKPEDTAVYYCNKDGPSYSSYDNWGQGTQVTVSS	low polyreactivity
QVQLVESGGGLVQAGGSLRLSCAASGSTFSSYVMGWYRKAPVKERELVAAISSIGGSTYFADSVKGRFTISRDNAKNTVYLQMNSLKPEDTAVYFCAAEPPGSTYEGGYWGQGTQVTVSS	low polyreactivity
QVQLVESGGGLVQAGGSLRLSCAASGSIFWKYAMGWYRQAPGKERELVAAISRSSSTTYYADSVKGRFTISRDNAKNTVYLQMNSLKPEDTAVYYCAAYYRSRVSDDYWGQGTQVTVSS	high polyreactivity
QVQLVESGGGLVQAGGSLRLSCAASGITLTRYAMGWYRQAPGKERELVAAISTGGGSTYYADSVKGRFTISRDNAKNTVYLQMNSLKPEDTAVYYCAARIRFARGYPITRTYDYWGQGTQVTVSS	high polyreactivity
QVQLVESGGGLVQAGGSLRLSCAASGRIIQYNAMGWYRQAPGKERELVAAISWRSRRTYYADSVKGRFTISRDNAKNTVYIQMNSLKPEDTAVYYCAATSRTSWYGYWGQGTQVTVSS	high polyreactivity
QVQLVESGGGLVQAGGSLRLSCAASGSIFDYNAMGWYRQAPGKEREFVAAISSSAGSTYYADSVKGRFTISRDNAKNTVYLEMNSLKPEDTAVYYCAADWYDFSFPYYEYEYWGQGTQVTVSS	low polyreactivity
QVQLVESGGGLVQAGGSLRLSCAASGRIFNIYAMGWYRQAPGKERELVAAISVSGTRTYYADSVKGRFTISRDNAKNTVYLQMNSLKPEDTAVYYCAADSYGGDWTEHMYYWGQGTQVTVSS	low polyreactivity
QVQLVESGGGLVQAGGSLRLSCAASGRIFRYYAMGWYRQAPGKERELDAGITGRGGRTYYADSVKGRFTISRDNAKNTVYLQMNSLKPEDTAVYYCAATVSPSYDYWGQGTQVTVSS	high polyreactivity
QVQLVESGGGLVQAGGSLRLSCAASGFIFRVNAMGWYRQAPGKERELVAAISSSGTSTYYADSVKGRFTISRDNAKNTVYLQMNSLKPEDTAVYYCAARLFYRSAYGYWGQGTQVTVSS	high polyreactivity
QVQIVESGGGLVQAGGSLRLSCAASGRIFGYNAMGWYRQAPGKERELVATITVGGGSTYYADSVKGRFTISRDNAKNTVYLQMNSLKPEDTAVYYCAADSGYQPVLHRGYYRFNYWGQGTQVTVSS	low polyreactivity
QVQLVESGGGLVQAGGSLRLSCAASGSIFSWNAMGWYRQAPGKERELVAAITSGGSTYYADSVKGRFTISRDNAKNTVYLQMNSLKPEDTAVYYCGWTYHYHRESWGQGTQVTVSS	low polyreactivity
QVQLVESGGGLVQAGGSLRLSCAASGFIFTTYGMGWYRQAPGKERELVAAISYRGDSTYYADSVKGRFTISRDNAKNTVYLQMNSLKPEDTAVYYCAADVTQKPYGLSHGQDAYDYWGQGTQVTVSS	low polyreactivity
